{
  "source": "patent US20200345898",
  "biological_target": "T1, lysyl oxidase (LOX), recombinant human, in supernatant of doxycycline-induced HEK293 (Flp-In T-REx 293) cells",
  "T1 chain": "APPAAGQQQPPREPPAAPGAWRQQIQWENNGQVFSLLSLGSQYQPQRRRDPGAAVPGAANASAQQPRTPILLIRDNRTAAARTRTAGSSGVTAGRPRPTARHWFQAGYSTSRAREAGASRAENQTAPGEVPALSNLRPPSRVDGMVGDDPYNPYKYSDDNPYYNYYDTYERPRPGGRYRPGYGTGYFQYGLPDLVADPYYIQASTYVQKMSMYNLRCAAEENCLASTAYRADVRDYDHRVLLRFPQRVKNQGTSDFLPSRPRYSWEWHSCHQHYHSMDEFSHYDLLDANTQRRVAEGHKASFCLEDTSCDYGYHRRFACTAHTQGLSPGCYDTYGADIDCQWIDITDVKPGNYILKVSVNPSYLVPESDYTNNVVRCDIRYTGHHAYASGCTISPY",
  "data": [
    {"protein": "bone morphogenetic protein-1 (BMP1), recombinant human, in supernatant of doxycycline-induced HEK293 (Flp-In T-REx 293) cells (protein) AATSRPERVWPDGVIPFVIGGNFTGSQRAVFRQAMRHWEKHTCVTFLERTDEDSYIVFTYRPCGCCSYVGRRGGGPQAISIGKNCDKFGIVVHELGHVVGFWHEHTRPDRDRHVSIVRENIQPGQEYNFLKMEPQEVESLGETYDFDSIMHYARNTFSRGIFLDTIVPKYEVNGVKPPIGQRTRLSKGDIAQARKLYKCPACGETLQDSTGNFSSPEYPNGYSAHMHCVWRISVTPGEKIILNFTSLDLYRSRLCWYDYVEVRDGFWRKAPLRGRFCGSKLPEPIVSTDSRLWVEFRSSSNWVGKGFFAVYEAICGGDVKKDYGHIQSPNYPDDYRPSKVCIWRIQVSEGFHVGLTFQSFEIERHDSCAYDYLEVRDGHSESSTLIGRYCGYEKPDDIKSTSSRLWLKFVSDGSINKAGFAVNFFKEVDECSRPNRGGCEQRCLNTLGSYKCSCDPGYELAPDKRRCEAACGGFLTKLNGSITSPGWPKEYPPNKNCIWQLVAPTQYRISLQFDFFETEGNDVCKYDFVEVRSGLTADSKLHGKFCGSEKPEVITSQYNNMRVEFKSDNTVSKKGFKAHFFSEKRPALQPPRGRPHQLKFRVQKRNRTPQ", "values": [
      {"measurement": "LOX enzymatic activity, fluorometric assay", "value": "the induction of the expression of LOX promoted a strong increase in LOX enzymatic activity, that was further augmented upon incubation with BMP1 supernatants in a time-dependent manner"},
      {"measurement": "LOX immunoreactivity by western blotting in supernatants of fibroblast cultures, one day", "value": "the combination of recombinant LOX and BMP1 resulted in complete proteolysis of the pro-LOX"}
    ]}
  ]
}
